Assay results: US20250326814A1 (OPKO BIOLOGICS, published 2025)
Non-standard residues stand in square brackets, D forms with d. No end group written: not given here. *: point of attachment. X2 = Eicosanedioic‑γGlu‑(AEEA)2‑Lys(Ac)‑Gly, CC(=O)NCCCC[C@H](NC(=O)COCCOCCNC(=O)COCCOCCNC(=O)CC[C@H](NC(=O)CCCCCCCCCCCCCCCCCCC(=O)O)C(=O)O)C(=O)NCC(=O)*; Aib = CC(C)(N)C(=O)O

Key:
Experiment in all cases: cell-based or functional assay
[1] = molecular target: glucagon-like peptide-1 receptor (GLP-1R)
[2] = molecular target: glucagon-like peptide-1 receptor (GLP-1R); remark: listed apart in the source
glucagon receptor (GCGR) [3] = molecular target: glucagon receptor (GCGR)
[4] = molecular target: glucagon-like peptide-1 receptor (GLP-1R); remark: listed apart in the source
glucagon receptor (GCGR) [5] = molecular target: glucagon receptor (GCGR); remark: listed apart in the source
[6] = molecular target: glucagon-like peptide-1 receptor (GLP-1R); remark: listed apart in the source
glucagon receptor (GCGR) [7] = molecular target: glucagon receptor (GCGR); remark: listed apart in the source

## H[Aib]QGTFTSDYSKYLDSKKAQEFVQWLLN[Aib]GRNRNNIAC(X2)-NH2 [OPK-88604 (modified OXM of Formula XIV)]
[1]
  EC50 (nM), GLP-1 activity: 0.09 nM
[2]
  EC50 (nM) GLP-1R, GLP-1 activity in vitro: 0.0159 nM
Glucagon receptor (GCGR) [3]
  EC50 (nM) GCGR, glucagon activity in vitro: 0.164 nM

B1: OPK-88003 FA mono conjugate (modified OXM of Formula XXII or Formula XXIII; in Table 9 a mixture of both) (peptide)
peptide: HXQGTFTSDYSKYLDSKKAQEFVQWLLNXGRNRNNIACC
modifications: Aib at positions 2 and 29; one Eicosanedioic-gGlu-Glu-AEEA-AEEA-AEEA-Lys(Ac-)-Gly-OH binder on Cys38 (Formula XXII, SEQ ID NO: 47) or on Cys39 (Formula XXIII, SEQ ID NO: 48); C-terminal amide (backbone C^38C^39-NH2)
[1]
  EC50 (nM), GLP-1 activity: 0.21 nM
[4]
  % EC50 compare to KPI (GLP1): 60%
  Activity fold reduction compared to OPK-88003 KPI (GLP1): 1.65 fold
  EC50 [nM] GLP1, CBA potency assay: 0.21 nM
Glucagon receptor (GCGR) [5]
  % EC50 compare to KPI (GCGR): 38%
  Activity fold reduction compared to OPK-88003 KPI (GCGR): 2.65 fold
  EC50 [nM] GCGR, CBA potency assay: 1.6 nM
[6]
  % EC50 compare to KPI (GLP1), with HSA added (FA-conjugate + HSA): 8.9%
  % EC50 compare to KPI (GLP1), without HSA: 100%
  Activity fold reduction compared to OPK-88003 KPI (GLP1), with HSA added (FA-conjugate + HSA): 11.2 fold
  EC50 [nM] GLP1, CBA potency assay, with HSA added (FA-conjugate + HSA): 2.27 nM
  EC50 [nM] GLP1, CBA potency assay, without HSA: 0.2 nM
Glucagon receptor (GCGR) [7]
  % EC50 compare to KPI (GCGR), with HSA added (FA-conjugate + HSA): 2.6%
  % EC50 compare to KPI (GCGR), without HSA: 45%
  Activity fold reduction compared to OPK-88003 KPI (GCGR), with HSA added (FA-conjugate + HSA): 38.6 fold
  Activity fold reduction compared to OPK-88003 KPI (GCGR), without HSA: 2.2 fold
  EC50 [nM] GCGR, CBA potency assay, with HSA added (FA-conjugate + HSA): 52.9 nM
  EC50 [nM] GCGR, CBA potency assay, without HSA: 3.04 nM

## H[Aib]QGTFTSDYSKYLDSKKAQEFVQWLLN[Aib]GRNRNNIAC(Eicosanedioic‑γGlu‑Glu‑(AEEA)3‑Lys(Ac)‑Gly)-NH2 [Variant 3 (Formula XVI)]
[1]
  EC50 (nM), GLP-1 activity: 0.15 nM

B2: MOD-604 KPI (mutated OXM analog of any one of SEQ ID NOs: 5 to 7) (peptide)
peptide: HXQGTFTSDYSKYLDSKKAQEFVQWLLNXGRNRNNIAC
HELM: PEPTIDE1{H.[Aib].Q.G.T.F.T.S.D.Y.S.K.Y.L.D.S.K.K.A.Q.E.F.V.Q.W.L.L.N.[Aib].G.R.N.R.N.N.I.A.C.[am]}$$$$V2.0; N-terminus assumed
SMILES: CC[C@H](C)[C@H](NC(=O)[C@H](CC(N)=O)NC(=O)[C@H](CC(N)=O)NC(=O)[C@H](CCCNC(=N)N)NC(=O)[C@H](CC(N)=O)NC(=O)[C@H](CCCNC(=N)N)NC(=O)CNC(=O)C(C)(C)NC(=O)[C@H](CC(N)=O)NC(=O)[C@H](CC(C)C)NC(=O)[C@H](CC(C)C)NC(=O)[C@H](Cc1c[nH]c2ccccc12)NC(=O)[C@H](CCC(N)=O)NC(=O)[C@@H](NC(=O)[C@H](Cc1ccccc1)NC(=O)[C@H](CCC(=O)O)NC(=O)[C@H](CCC(N)=O)NC(=O)[C@H](C)NC(=O)[C@H](CCCCN)NC(=O)[C@H](CCCCN)NC(=O)[C@H](CO)NC(=O)[C@H](CC(=O)O)NC(=O)[C@H](CC(C)C)NC(=O)[C@H](Cc1ccc(O)cc1)NC(=O)[C@H](CCCCN)NC(=O)[C@H](CO)NC(=O)[C@H](Cc1ccc(O)cc1)NC(=O)[C@H](CC(=O)O)NC(=O)[C@H](CO)NC(=O)[C@@H](NC(=O)[C@H](Cc1ccccc1)NC(=O)[C@@H](NC(=O)CNC(=O)[C@H](CCC(N)=O)NC(=O)C(C)(C)NC(=O)[C@@H](N)Cc1c[nH]cn1)[C@@H](C)O)[C@@H](C)O)C(C)C)C(=O)N[C@@H](C)C(=O)N[C@@H](CS)C(N)=O
[1]
  EC50 (nM), GLP-1 activity: 0.13 nM
[4]
  % EC50 compare to KPI (GLP1): 45%
  Activity fold reduction compared to OPK-88003 KPI (GLP1): 2.2 fold
  EC50 [nM] GLP1, CBA potency assay: 0.282 nM
Glucagon receptor (GCGR) [5]
  % EC50 compare to KPI (GCGR): 72%
  Activity fold reduction compared to OPK-88003 KPI (GCGR): 1.4 fold
  EC50 [nM] GCGR, CBA potency assay: 0.83 nM

## H[Aib]QGTFTSDYSKYLDSKKAQEFVQWLLN[Aib]GRNRNNIAC-NH2 (not fully specified (residue 38)) [Variant 2 (Formula XV)]
[1]
  EC50 (nM), GLP-1 activity: 0.1 nM
